Patent publication US20240270853A1 (Chugai, published 2024)

Columns and labels:
[1] = biological target: T1, mouse DDR2 delta DSL-EJXM (stably expressed on Ba/F3 cell line) (mouse, UniProt Q62371 22-854); test: flow cytometry on Ba/F3 cells expressing mouse DDR2 delta DSL-EJXM
T1 construct: Full length mouse DDR2 with Gln201-Val393 deleted; also called mouse DDR2 fragment with DSL domain and EJXM region (Gln201-Val393) deleted
T1 sequence: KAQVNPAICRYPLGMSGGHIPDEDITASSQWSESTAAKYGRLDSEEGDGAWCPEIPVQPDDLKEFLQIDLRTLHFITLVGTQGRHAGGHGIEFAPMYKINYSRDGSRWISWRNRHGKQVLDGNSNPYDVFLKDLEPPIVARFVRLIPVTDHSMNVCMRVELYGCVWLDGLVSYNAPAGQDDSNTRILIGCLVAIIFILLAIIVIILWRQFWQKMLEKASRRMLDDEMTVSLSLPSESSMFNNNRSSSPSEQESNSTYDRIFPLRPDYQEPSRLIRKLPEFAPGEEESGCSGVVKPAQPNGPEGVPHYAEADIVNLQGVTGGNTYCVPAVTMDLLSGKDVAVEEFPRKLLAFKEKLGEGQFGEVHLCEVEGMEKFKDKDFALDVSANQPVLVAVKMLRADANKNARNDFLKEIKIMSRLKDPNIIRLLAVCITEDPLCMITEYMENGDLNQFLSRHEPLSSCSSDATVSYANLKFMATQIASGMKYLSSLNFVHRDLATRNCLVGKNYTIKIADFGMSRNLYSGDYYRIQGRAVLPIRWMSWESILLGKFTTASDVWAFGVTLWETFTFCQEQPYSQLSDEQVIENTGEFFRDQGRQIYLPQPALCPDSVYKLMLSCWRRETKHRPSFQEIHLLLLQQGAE
Experimental: Mean Fluorescent Intensity (MFI) of each antibody was measured by flow cytometry using Ba/F3 cell line that stably expresses mouse DDR2 fragment in which Discoidin-like (DSL) domain and extracellular juxtamembrane (EJXM) region were deleted from full length mouse DDR2 (mouse DDR2 delta DSL-EJXM). Names under the horizontal axis are names of the tested antibodies. IC17dK is an anti-KLH antibody used as a negative control.
To map more detailed binding epitope of anti-DDR2 antibodies, fragment of mouse DDR2, in which discoidin-like (DSL) domain and extracellular juxtamembrane (EJXM) region (Gln201-Val393) are deleted from full length mouse DDR2 (mouse DDR2 delta DSL-EJXM) was made. Mouse DDR2 delta DSL-EJXM stably-expressing Ba/F3 cell line was prepared. Binding of the antibodies to this cell line was measured by flow cytometry and MFI value was acquired. Epitope of antibodies which can bind to full length mouse DDR2 but not to mouse DDR2 delta DSL-EJXM would be DSL-EJXM region. Epitope of antibodies which can bind to both full length mouse DDR2 and mouse DDR2 delta DSL-EJXM would be discoidin (DS) domain. In Table2, “Yes” means that tested antibody can bind to the cell line and “No” means that antibody cannot bind to the cell line.

[2] = biological target: T2, full length mouse DDR2 (stably expressed on Ba/F3 cell line) (mouse, UniProt Q62371 22-854); test: flow cytometry on Ba/F3 cells expressing full length mouse DDR2, one-arm format
T2 construct: also called moDDR2
T2 sequence: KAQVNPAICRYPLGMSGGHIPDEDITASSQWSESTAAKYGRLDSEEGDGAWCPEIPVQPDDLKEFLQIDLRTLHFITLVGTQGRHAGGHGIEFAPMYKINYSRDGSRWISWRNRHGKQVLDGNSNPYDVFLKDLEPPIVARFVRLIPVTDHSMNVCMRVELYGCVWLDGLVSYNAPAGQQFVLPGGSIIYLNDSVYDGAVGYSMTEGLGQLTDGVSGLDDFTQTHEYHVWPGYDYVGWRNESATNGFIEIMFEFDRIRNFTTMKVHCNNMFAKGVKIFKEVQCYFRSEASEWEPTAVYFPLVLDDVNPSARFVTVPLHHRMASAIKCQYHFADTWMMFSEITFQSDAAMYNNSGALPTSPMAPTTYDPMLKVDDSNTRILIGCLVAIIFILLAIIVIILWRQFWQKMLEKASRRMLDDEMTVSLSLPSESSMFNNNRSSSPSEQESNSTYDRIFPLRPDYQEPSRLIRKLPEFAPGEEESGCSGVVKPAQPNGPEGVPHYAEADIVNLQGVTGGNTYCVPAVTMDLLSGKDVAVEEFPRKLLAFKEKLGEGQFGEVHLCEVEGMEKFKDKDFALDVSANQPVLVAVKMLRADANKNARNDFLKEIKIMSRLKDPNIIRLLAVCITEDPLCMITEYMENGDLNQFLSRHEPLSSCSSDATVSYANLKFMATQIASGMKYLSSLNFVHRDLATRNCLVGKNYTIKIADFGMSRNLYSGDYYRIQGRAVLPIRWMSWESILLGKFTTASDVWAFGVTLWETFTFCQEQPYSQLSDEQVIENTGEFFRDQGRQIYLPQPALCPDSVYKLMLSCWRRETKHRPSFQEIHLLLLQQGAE
Experimental: Mean Fluorescent Intensity (MFI) of each antibody was measured by flow cytometry using Ba/F3 cell line that stably expresses full length mouse DDR2. Names under the horizontal axis are names of the tested antibodies. IC17dK is an anti-KLH antibody used as a negative control.
To determine antibody binding to mouse DDR2, flow cytometry analysis was carried out by using mouse-DDR2-stably-expressing Ba/F3 cell line. One-arm format antibodies, which contains one antibody variable region in each molecule, were prepared to evaluate the binding by affinity mode.

B1: DAB0009 (antibody, V domains shown)
VH: QSVEESGGRLVTPGTPLTLTCAVSGFSLNSHVMGWVRQAPGRGLECIGIIAVSGDIYYANWAKGRFTISKTSTTVDLRITSPTTEDTATYFCGSPTVINNNNLWGQGTLVTVSS
VL: AQVLTQTASPVSAAVGGTVTINCQSSQNVYGNNYLSWFQQKPGQPPKLLIYSTSTLASGVSSRFKGSGSGTQFTLTISDLECADAATYYCLGGYDCNIVDCRAFGGGTKVEIK
notes: Variable regions from immunized rabbits
Does B1 bind [1]?
Result: no binding

Does B1 bind [2]?
Result: binds

B2: DAB0071 (antibody, V domains shown)
VH: QSLEESGGRLVTPGGSLTLTCTASGFSLSAYYMQWVRQAPGKGLEWIGWINTGGSAYYPSWARGRFTISKTSTTVDLKITSPTTEDTATYFCARSDASVHQFNLWGQGTLVTVSS
VL: DVVMTQTPASVEAAVGGTVTIKCQASESIGNALAWYQQRPGQPPKLLIYYASTLESGVPSRFKGSGSGTEFTLTISDLECADAATYYCQCTYGSGSSRGNAFGGGTKVEIK
notes: as for B1
Which results are given for B2?
binding result [1]: no binding; binding result [2]: binds

B3: DAB0052 (antibody, V domains shown)
VH: QSVEESGGRLVTPGTPLTLTCTVSGFSLNRYTGIWVRQAPGKGLEWIGIISSDDRTWYASWAKGRFTISKTSTTVDLKITSPTIEDTATYFCARDVGGDSWFWGLWGQGTLVTVSS
VL: DIVMTQTPASVEAAVGGTVTIKCQASQSISSWLAWYQQKPGQPPKLLIYYASTLASGVPSRFSGSGSGTEFTLTISDLECADAATYYCQSNYYSSSNSNYGHAFGGGTKVEIK
notes: as for B1
What does the source list for B3?
binding result [1]: no binding; binding result [2]: binds
